Assay results taken from the supplement of paper PMC9112550, “Optimization of the antimicrobial peptide Bac7 by deep mutational scanning” (BMC Biology, 2022).

Test system: Escherichia coli TOP10
Assay: shrunken log2 fold change of peptide-encoding DNA abundance (4.5 h post-induction vs induction); higher = less antimicrobial activity (less host growth inhibition)
Conditions: time post-induction: 4.5 h; library: site-saturation at positions 5, 18, 19, 20
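Also: peptides expressed intracellularly from a pBAD plasmid library in pooled LB shake-flask culture, induced with 0.3% L-arabinose, DNA abundance read by NGS, three biological replicates, DESeq2 with apeglm shrinkage.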

Sequence | shrunken log2 fold change
RRIRCRPPRLPRPRPRPSGCPRP | -0.221
RRIRTRPPRLPRPRPRPEEQPRP | 0.0262
RRIRWRPPRLPRPRPRPQCHPRP | -0.13
RRIRYRPPRLPRPRPRPHDDPRP | 0.0514
RRIRWRPPRLPRPRPRPECGPRP | 1.37
RRIRKRPPRLPRPRPRPWCDPRP | -0.377
RRIRDRPPRLPRPRPRPHTVPRP | -0.0379
RRIRIRPPRLPRPRPRPAYIPRP | 0.011
RRIRYRPPRLPRPRPRPHIGPRP | 0.0489
RRIRIRPPRLPRPRPRPFMHPRP | -0.0575
RRIRDRPPRLPRPRPRPDFPPRP | 0.0974
RRIRFRPPRLPRPRPRPIIKPRP | -0.696
RRIRDRPPRLPRPRPRPKKLPRP | -0.0595
RRIRTRPPRLPRPRPRPGRRPRP | 0.244
RRIRPRPPRLPRPRPRPHTTPRP | 0.0817
RRIRTRPPRLPRPRPRPEGGPRP | 0.203
RRIRQRPPRLPRPRPRPMFDPRP | -0.109
RRIRIRPPRLPRPRPRPLHIPRP | -1.21
RRIRDRPPRLPRPRPRPVCHPRP | -0.0164
RRIRKRPPRLPRPRPRPIIRPRP | -0.59
RRIRTRPPRLPRPRPRPCTRPRP | -0.287
RRIRRRPPRLPRPRPRPFHEPRP | -0.195
RRIRTRPPRLPRPRPRPCWWPRP | 0.636
RRIRKRPPRLPRPRPRPNHTPRP | -0.213
RRIRTRPPRLPRPRPRPPLNPRP | -0.183

Sequence | shrunken log2 fold change
RRIRFRPPRLPRPRPRPLQYPRP | -0.242
RRIRLRPPRLPRPRPRPGWYPRP | 0.354
RRIRGRPPRLPRPRPRPGAIPRP | 1.44
RRIRCRPPRLPRPRPRPGHQPRP | 0.242
RRIRPRPPRLPRPRPRPPQDPRP | 0.523
RRIRHRPPRLPRPRPRPQGSPRP | -0.109
RRIRWRPPRLPRPRPRPCSDPRP | 0.273
RRIRERPPRLPRPRPRPEAPPRP | 0.406
RRIRARPPRLPRPRPRPKNMPRP | -0.191
RRIRHRPPRLPRPRPRPQVYPRP | -0.21
RRIRMRPPRLPRPRPRPFSMPRP | -0.112
RRIRARPPRLPRPRPRPQSPPRP | -0.0671
RRIRQRPPRLPRPRPRPAAPPRP | 0.243
RRIRWRPPRLPRPRPRPLYNPRP | -0.78
RRIRLRPPRLPRPRPRPVTMPRP | -0.195
RRIRNRPPRLPRPRPRPMDAPRP | 0.101
RRIRQRPPRLPRPRPRPWHSPRP | -0.00968
RRIRERPPRLPRPRPRPQEWPRP | -0.021
RRIRERPPRLPRPRPRPCWWPRP | 0.288
RRIRWRPPRLPRPRPRPPYKPRP | -0.249
RRIRHRPPRLPRPRPRPHTRPRP | -0.174
RRIRYRPPRLPRPRPRPCCTPRP | -0.418
RRIRHRPPRLPRPRPRPCHSPRP | -0.19
RRIRVRPPRLPRPRPRPFGCPRP | -0.19
RRIRGRPPRLPRPRPRPPHIPRP | 0.551

Sequence | shrunken log2 fold change
RRIRPRPPRLPRPRPRPIADPRP | 0.0705
RRIRVRPPRLPRPRPRPTTLPRP | -0.111
RRIRMRPPRLPRPRPRPPLDPRP | 1.03
RRIRIRPPRLPRPRPRPDHGPRP | 0.0143
RRIRDRPPRLPRPRPRPPGCPRP | -0.0092
RRIRYRPPRLPRPRPRPYPCPRP | -0.268
RRIRLRPPRLPRPRPRPEIPPRP | -0.0569
RRIRERPPRLPRPRPRPYRKPRP | -0.264
RRIRIRPPRLPRPRPRPFRTPRP | -0.241
RRIRIRPPRLPRPRPRPQCAPRP | -0.272
RRIRWRPPRLPRPRPRPQMEPRP | 0.0344
RRIRIRPPRLPRPRPRPRFYPRP | -0.124
RRIRVRPPRLPRPRPRPCRGPRP | 1.11
RRIRKRPPRLPRPRPRPSWIPRP | -0.487
RRIRTRPPRLPRPRPRPIMTPRP | -0.0418
RRIRNRPPRLPRPRPRPIQMPRP | -0.0365
RRIRWRPPRLPRPRPRPWEQPRP | 0.0277
RRIRSRPPRLPRPRPRPWCTPRP | -0.255
RRIRLRPPRLPRPRPRPPMCPRP | 0.202
RRIRNRPPRLPRPRPRPNILPRP | -0.0518
RRIRSRPPRLPRPRPRPGRFPRP | 0.406
RRIRQRPPRLPRPRPRPPYVPRP | 0.191
RRIRWRPPRLPRPRPRPDETPRP | 0.0169
RRIRKRPPRLPRPRPRPPNKPRP | 0.289
RRIRGRPPRLPRPRPRPWTTPRP | 0.00743
